Common to all, as to type: in vivo, mouse
Test [1] relates to total splenocytes. As to the kind of experiment: Ex vivo recall responses of splenocytes, HY bone marrow transplantation model. As to the method:
On week 8 post bone marrow cell transplantion, total splenocytes (5×10^5 cells/well) were cultured in the presence of medium alone (no stimulation), anti-CD3(1 ug/ml), DBY peptide (10 ug/ml), irradiated male splenocytes (5×10^5 cells/well), or irradiated female splenocytes (5×10^5 cells/well). The individual splenocyte samples were cultured separately in triplicate wells. For T cell proliferative response, the cultures were pulsed with 1 uCi of tritiated thymidine at 24 hours and harvested at 72 hours post culture initiation. The statistical analysis carried out on the data is one-way ANOVA followed by Dunnett's post test as compared to the mice receiving male CD45.1+ bone marrow cells plus Control Ig treatment, p-values *<0.05, **<0.01,***<0.001, and #<0.0001.
On week 8 post bone marrow cell transplant, total splenocytes (5×10^5 cells/well) were cultured in the presence of medium alone (no stimulation), anti-CD3 (1 ug/ml), DBY peptide (10 ug/ml), irradiated male splenocytes (5×10^5 cells/well), or irradiated female splenocytes (5×10^5 cells/well). The individual splenocyte samples were cultured separately in triplicate wells. For the cytokine cultures, the supernatants were collected at 72 hours post culture initiation and the level of secreted cytokine was determined via LiquiChip. […]
These same populations of cells were analyzed at week 8 within the spleen. […]

Test [2] relates to SJL/J mice. As to the kind of experiment: PLP139-151/CFA R-EAE upon IL-10 or TGFb blockade, clinical score. As to the method:
SJL/J mice were purchased from Harlan and primed with PLP139-151/CFA per the standard protocol, as described in 21.1.2 Methods, above). At disease remission the mice were split into 6 different treatment groups (n=5) as follows:
Mice were treated with Control Ig (mouse IgG2a) or C1ORF32 ECD-Fc (SEQ ID NO:42) at 100 ug/dose, each via an i.p. injection. This was followed with a second i.p. injection on the same day of either anti-IL-10 (rat IgG1), rat IgG1 (control Ab), or anti-TGFβ (mouse IgG1) at 100 ug/dose, each. All treatments were given 3×/wk for 2 wks, beginning on day +20 (onset of disease remission) and until day +31 post disease induction. All mice were followed for disease scores until day 44 post disease induction. On day 44, mice were sacrificed and analyzed for total T cell and Treg cell numbers in spleen and CNS. […]
Mice were followed for disease and scored on a 0-5 scale per standard lab protocol as follows: 0, no abnormality; 1, limp tail; 2, limp tail and hind limb weakness; 3, hind limb paralysis; 4, hind limb paralysis and forelimb weakness; and 5, moribund. Dead mice were scored with a score of 5 on the day of death only, and were not further scored on the next days.

In test [3] the test system is male DBA-1 mice. Put plainly: Established collagen induced arthritis (CIA), macroscopic and histological scores. On the procedure: Bovine type II collagen (CII) (RUNMC in house production, batch 03-04-08) at a concentration of 2 mg/ml in acetic acid 0.05M was emulsified in equal volumes of Freund's complete adjuvant (2 mg/ml of Mycobacterium tuberculosis strain H37Ra; Difco, Detroit, Mich.).
On day 0, 10-12 week old male DBA-1 mice (Janvier Elevage, France) (n=95) were immunized i.d. at the base of the tail with 100 μg of bovine CII. On day 21, mice received an intraperitoneal booster injection of 50 μg of CII dissolved in phosphate buffered saline (PBS), and the onset of arthritis occurred a few days after this booster.
Joint inflammation in each paw was scored visually, using a scale of 0-2 per paw with a maximal score of 8 per animal: 0=non inflamed, 1=mild inflammation, 1.5=marked inflammation, and 2=severe inflammation. Scoring was performed three times a week.
Treatment was started in established CIA early after onset of disease (i.e. therapeutic regimen), when the macroscopic scores per animal were between 0.25 and 1.25 (on a scale of 0-8). […] Histology was scored for inflammation and destruction on an arbitrary scale of 0-3, for five different parameters: […]
Joints were fixed for at least 4 days in 4% formaldehyde, decalcified in 5% formic acid, and subsequently dehydrated and embedded in paraffin. […] The severity of inflammation in the joints was scored on a scale of 0-3 (0=no cells, 1=mild cellularity, 2=moderate cellularity, and 3=maximal cellularity). […] Depletion of PG was determined using an arbitrary scale of 0-3, ranging from normal, fully stained cartilage to destained cartilage, fully depleted of PGs. Chondrocyte death was scored on a scale of 0-3 ranging from no loss of chondrocyte nuclei to complete empty cartilage surface. The degree of cartilage surface erosion was scored on a scale of 0-3, ranging from no damage to complete loss of articular cartilage. […] Histopathological changes in the joint were scored on three semiserial sections of the joint spaced 70 μm apart. […]

B1: C1ORF32 ECD-Fc (SEQ ID NO:42): human-mouse fusion protein: human C1ORF32 ECD fused to mouse immunoglobulin Fc (SEQ ID NO:42) (protein)
chain: LQVTVPDKKKVAMLFQPTVLRCHFSTSSHQPAVVQWKFKSYCQDRMGESLGMSSTRAQSLSKRNLEWDPYLDCLDSRRTVRVVASKQGSTVTLGDFYRGREITIVHDADLQIGKLMWGDSGLYYCIITTPDDLEGKNEDSVELLVLGRTGLLADLLPSFAVEIMGSENLYFQGSGEPRGPTIKPCPPCKCPAPNLLGGPSVFIFPPKIKDVLMISLSPIVTCVVVDVSEDDPDVQISWFVNNVEVHTAQTQTHREDYNSTLRVVSALPIQHQDWMSGKEFKCKVNNKDLPAPIERTISKPKGSVRAPQVYVLPPPEEEMTKKQVTLTCMVTDFMPEDIYVEWTNNGKTELNYKNTEPVLDSDGSYFMYSKLRVEKKNWVERNSYSCSVVHEGLHNHHTTKSFSRTPGK
modifications: Fusion protein human C1ORF32-ECD fused to mouse IgG2a Fc
Regarding B1, in test [1] (activation with irradiated male splenocytes), the “IL-10 and IL-4” value is “increased level”. Moreover, in test [1] (week 8 splenocytes, in response to male or female splenocytes), the “IL-10 and IL-4 secretion” value is “significantly increased”. In addition, the “beneficial effect on disease” value in test [2] (concomitant administration of anti-IL-10) and in test [2] (concomitant administration of anti-TGF) was “abrogated the beneficial effect” in each case. Besides, the “clinical (macroscopic) scores of arthritis” value in test [3] (10 mg/kg i.p. 3x/wk 2 wks, p<0.001 vs mIgG2a) is “significantly reduced”. The “overall outcome in three CIA studies” value in test [3] (mouse, in vivo) is “excellent results in two studies and weak results in one study”.

Source of the values: patent publication US20190309044A1, “POLYPEPTIDES AND USES THEREOF AS A DRUG FOR TREATMENT OF AUTOIMMUNE DISORDERS” (Compugen Ltd., priority 2017, published 2019).
